Measurements published in patent publication US20130345129A1 (OTSUKA CHEMICAL, published 2013).
No end group written: not given here. asialo oligosaccharide = asialo (digalactose) oligosaccharide chain

T1: mouse GLP-1 receptor (mouse, UniProt O35659 22-463)
T1 sequence (looked up): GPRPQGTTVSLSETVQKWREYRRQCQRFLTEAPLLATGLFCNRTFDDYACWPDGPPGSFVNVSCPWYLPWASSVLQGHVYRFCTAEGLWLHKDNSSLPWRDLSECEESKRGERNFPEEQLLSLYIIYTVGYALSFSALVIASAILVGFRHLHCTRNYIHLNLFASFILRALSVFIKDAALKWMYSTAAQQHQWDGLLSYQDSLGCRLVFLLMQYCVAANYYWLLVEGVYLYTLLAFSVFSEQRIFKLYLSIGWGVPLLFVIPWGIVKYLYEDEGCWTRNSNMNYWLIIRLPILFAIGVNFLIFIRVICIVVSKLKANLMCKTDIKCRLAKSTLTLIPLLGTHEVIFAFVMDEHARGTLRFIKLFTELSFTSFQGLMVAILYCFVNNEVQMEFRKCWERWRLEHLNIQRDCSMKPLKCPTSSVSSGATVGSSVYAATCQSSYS

B1: 27Cys GLP-1-disialo (peptide)
peptide: HAEGTFTSDVSSYLEGQAAKC(disialo oligosaccharide)FIAWLVKGRG
B2: 16Cys GLP-1-disialo (peptide)
peptide: HAEGTFTSDC(disialo oligosaccharide)SSYLEGQAAKEFIAWLVKGRG
B3: 26Cys GLP-1-disialo (peptide)
peptide: HAEGTFTSDVSSYLEGQAAC(disialo oligosaccharide)EFIAWLVKGRG
B4: 32Cys GLP-1-disialo (peptide)
peptide: HAEGTFTSDVSSYLEGQAAKEFIAWC(disialo oligosaccharide)VKGRG
B5: 24Cys GLP-1-disialo (peptide)
peptide: HAEGTFTSDVSSYLEGQC(disialo oligosaccharide)AKEFIAWLVKGRG
B6: 11Cys GLP-1-disialo (peptide)
peptide: HAEGC(disialo oligosaccharide)FTSDVSSYLEGQAAKEFIAWLVKGRG
B7: 14Cys GLP-1-disialo (peptide)
peptide: HAEGTFTC(disialo oligosaccharide)DVSSYLEGQAAKEFIAWLVKGRG
B8: 6Cys GLP-1-disialo (peptide)
peptide: CHAEGTFTSDVSSYLEGQAAKEFIAWLVKGRG
modifications: disialo oligosaccharide chain added Cys at position 6 (added before 7His; chain attached to Cys with bromoacetamidyl disialo oligosaccharide)
B9: 22Cys GLP-1-disialo (peptide)
peptide: HAEGTFTSDVSSYLEC(disialo oligosaccharide)QAAKEFIAWLVKGRG
B10: 12Cys GLP-1-disialo (peptide)
peptide: HAEGTC(disialo oligosaccharide)TSDVSSYLEGQAAKEFIAWLVKGRG
B11: 34Cys GLP-1-asialo (peptide)
peptide: HAEGTFTSDVSSYLEGQAAKEFIAWLVC(asialo oligosaccharide)GRG
B12: 38Cys GLP-1-disialo (peptide)
peptide: HAEGTFTSDVSSYLEGQAAKEFIAWLVKGRGC
modifications: disialo oligosaccharide chain added Cys at position 38 (added after 37Gly)
B13: 30Cys GLP-1-disialo (peptide)
peptide: HAEGTFTSDVSSYLEGQAAKEFIC(disialo oligosaccharide)WLVKGRG
B14: 28Cys GLP-1-disialo (peptide)
peptide: HAEGTFTSDVSSYLEGQAAKEC(disialo oligosaccharide)IAWLVKGRG
B15: 10Cys GLP-1-disialo (peptide)
peptide: HAEC(disialo oligosaccharide)TFTSDVSSYLEGQAAKEFIAWLVKGRG
B16: 26Cys GLP-1-asialo (peptide)
peptide: HAEGTFTSDVSSYLEGQAAC(asialo oligosaccharide)EFIAWLVKGRG
B17: 9Cys GLP-1-disialo (peptide)
peptide: HAC(disialo oligosaccharide)GTFTSDVSSYLEGQAAKEFIAWLVKGRG
B18: 20Cys GLP-1-disialo (peptide)
peptide: HAEGTFTSDVSSYC(disialo oligosaccharide)EGQAAKEFIAWLVKGRG
B19: 34Cys GLP-1-disialo (peptide)
peptide: HAEGTFTSDVSSYLEGQAAKEFIAWLVC(disialo oligosaccharide)GRG
B20: 36Cys GLP-1-disialo (peptide)
peptide: HAEGTFTSDVSSYLEGQAAKEFIAWLVKGC(disialo oligosaccharide)G
B21: 25Cys GLP-1-disialo (peptide)
peptide: HAEGTFTSDVSSYLEGQAC(disialo oligosaccharide)KEFIAWLVKGRG
B22: 18Cys GLP-1-disialo (peptide)
peptide: HAEGTFTSDVSC(disialo oligosaccharide)YLEGQAAKEFIAWLVKGRG
B23: 8Cys GLP-1-disialo (peptide)
peptide: HC(disialo oligosaccharide)EGTFTSDVSSYLEGQAAKEFIAWLVKGRG

What follows are binders tested against T1, mouse GLP-1 receptor (assay: cell-based or functional assay).

First: B1
Second: B2
The “Relative Activity (cAMP synthesis, EC50 relative to GLP-1 = 1)” value (shortened to “Relative Activity”) of the first is higher: 0.2 relative (GLP-1 = 1) for the first, < 0.1 relative (GLP-1 = 1) for the second.

First: B3
Second: B4
The “Relative Activity” value of the first is higher: 0.2 relative (GLP-1 = 1) for the first, < 0.1 relative (GLP-1 = 1) for the second.

B5 and B6 cannot be ordered by “Relative Activity” value: < 0.1 relative (GLP-1 = 1) for the first, < 0.1 relative (GLP-1 = 1) for the second.

B7 and B8 cannot be ordered by “Relative Activity” value: < 0.1 relative (GLP-1 = 1) for the first, < 0.1 relative (GLP-1 = 1) for the second.

Compared with B9, B10 is lower in “Relative Activity” value: 1 relative (GLP-1 = 1) for the first, < 0.1 relative (GLP-1 = 1) for the second.

Compared with B11, B12 is lower in “Relative Activity” value: 2.2 relative (GLP-1 = 1) for the first, 1.9 relative (GLP-1 = 1) for the second.

Compared with B13, B14 is lower in “Relative Activity” value: 0.6 relative (GLP-1 = 1) for the first, < 0.1 relative (GLP-1 = 1) for the second.

Compared with B15, B16 is higher in “Relative Activity” value: < 0.1 relative (GLP-1 = 1) for the first, 0.8 relative (GLP-1 = 1) for the second.

B17 and B18 cannot be ordered by “Relative Activity” value: < 0.1 relative (GLP-1 = 1) for the first, < 0.1 relative (GLP-1 = 1) for the second.

Compared with B19, B20 is higher in “Relative Activity” value: 0.7 relative (GLP-1 = 1) for the first, 1.9 relative (GLP-1 = 1) for the second.

B21 and B22 cannot be ordered by “Relative Activity” value: < 0.1 relative (GLP-1 = 1) for the first, < 0.1 relative (GLP-1 = 1) for the second.

B23 was tested, and the “Relative Activity” value was < 0.1 relative (GLP-1 = 1).
